Article PMC3191170, “Epigenetic Control of Viral Life-Cycle by a DNA-Methylation Dependent Transcription Factor”

Legend:
Settings in all cases: protein: ivt; chain copies: 2; label: 32P
Zta (BZLF1, ZEBRA, EB1) [1] = molecular target: T1, Zta (BZLF1, ZEBRA, EB1) (Epstein-Barr virus (B95-8 strain), UniProt P03206 1-245); assay: EMSA; EMSA with wheat germ in vitro translated Zta and 32P-labelled ds oligonucleotides; buffer, salt, pH and temperature not given (as in ref 39)
Zta (BZLF1, ZEBRA, EB1) [2] = molecular target: T1, Zta (BZLF1, ZEBRA, EB1); assay: EMSA; CpG methylated; EMSA with wheat germ in vitro translated Zta and 32P-labelled ds oligonucleotides; buffer, salt, pH and temperature not given (as in ref 39)
Zta (BZLF1, ZEBRA, EB1) [3] = molecular target: T1, Zta (BZLF1, ZEBRA, EB1); assay: EMSA; unmethylated; class III; EMSA with wheat germ in vitro translated Zta and 32P-labelled ds oligonucleotides; buffer, salt, pH and temperature not given (as in ref 39)

T1 sequence (P03206 whole entry): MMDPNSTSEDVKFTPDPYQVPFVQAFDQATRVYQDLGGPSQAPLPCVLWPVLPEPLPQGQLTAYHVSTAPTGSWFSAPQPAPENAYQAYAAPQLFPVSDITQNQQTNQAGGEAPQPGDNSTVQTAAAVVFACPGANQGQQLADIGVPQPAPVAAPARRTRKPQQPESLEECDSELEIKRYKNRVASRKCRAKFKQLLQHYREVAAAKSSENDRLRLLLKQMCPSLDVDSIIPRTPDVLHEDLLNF

B1: Zp (-96) (dsDNA)
DNA 1: TAAATTTAGGTGTGTCTATGAGGTACA
DNA 2: TGTACCTCATAGACACACCTAAATTTA
binding result (Zta (BZLF1, ZEBRA, EB1) [1]): binds

B2: Rp (-114) / CpG5 O, methylated (dsDNA)
DNA 1: CACTCATACTTAAGCGATGCTGATGCA
DNA 2: TGCATCAGCATCGCTTAAGTATGAGTG
modifications: 5mC at CpG, both strands (M.SssI or synthesis)
binding result (Zta (BZLF1, ZEBRA, EB1) [2]): binds

B3: Rp (-114) / CpG5 O, unmethylated (dsDNA)
DNA 1: CACTCATACTTAAGCGATGCTGATGCA
DNA 2: TGCATCAGCATCGCTTAAGTATGAGTG
binding result (Zta (BZLF1, ZEBRA, EB1) [3]): no binding
